Assays:
Assay in all cases: cell-based or functional assay
[1] = biological target: HIV-1 Env of pseudovirus Ce1176_A3 (HIV-1)
[2] = biological target: HIV-1 Env of pseudovirus Q842.d12 (HIV-1)
[3] = biological target: HIV-1 Env of pseudovirus CNE21 (HIV-1)
[4] = biological target: HIV-1 Env of pseudovirus Ce703010054_2A2 (HIV-1)
[5] = biological target: HIV-1 Env of pseudovirus 7030102001E5(Rev-) (HIV-1)
[6] = biological target: HIV-1 Env of pseudovirus T250-4 (HIV-1)
[7] = biological target: HIV-1 Env of pseudovirus CNE19 (HIV-1)
[8] = biological target: HIV-1 Env of pseudovirus P0402_c2_11 (HIV-1)
[9] = biological target: HIV-1 Env of pseudovirus ZM233M.PB6 (HIV-1)
[10] = biological target: HIV-1 Env of pseudovirus SC05_8C11_2344 (HIV-1)
[11] = biological target: HIV-1 Env of pseudovirus T278-50 (HIV-1)
[12] = biological target: HIV-1 Env of pseudovirus T251-18 (HIV-1)
[13] = biological target: HIV-1 Env of pseudovirus 249M B10 (HIV-1)
[14] = biological target: HIV-1 Env of pseudovirus Ce1086_B2 (HIV-1)
[15] = biological target: HIV-1 Env of pseudovirus X1254_c3 (HIV-1)
[16] = biological target: HIV-1 Env of pseudovirus BJOX028000.10.3 (HIV-1)
[17] = biological target: HIV-1 Env of pseudovirus ZM135M.PL10a (HIV-1)
[18] = biological target: HIV-1 Env of pseudovirus 1012_11_TC21_3257 (HIV-1)
[19] = biological target: HIV-1 Env of pseudovirus 1006_11_C3_1601 (HIV-1)
[20] = biological target: HIV-1 Env of pseudovirus TRJO4551.58 (HIV-1)
[21] = biological target: HIV-1 Env of pseudovirus 1056_10_TA11_1826 (HIV-1)
[22] = biological target: HIV-1 Env of pseudovirus Du172.17 (HIV-1)
[23] = biological target: HIV-1 Env of pseudovirus 1054_07_TC4_1499 (HIV-1)
[24] = biological target: HIV-1 Env of pseudovirus ZM53M.PB12 (HIV-1)
[25] = biological target: HIV-1 Env of pseudovirus AC10.0.29 (HIV-1)
[26] = biological target: HIV-1 Env of pseudovirus CNE52 (HIV-1)
[27] = biological target: HIV-1 Env of pseudovirus CNE20 (HIV-1)
[28] = biological target: HIV-1 Env of pseudovirus Ce704809221_1B3 (HIV-1)
[29] = biological target: HIV-1 Env of pseudovirus R2184.c04 (HIV-1)
[30] = biological target: HIV-1 Env of pseudovirus CNE17 (HIV-1)

With N49P7 (antibody) the neutralization IC50 [1] was 0.204 µg/mL, the neutralization IC80 [1] was 0.589 µg/mL and the neutralization MPI [1] was 100. The neutralization IC50 [2] was 0.021 µg/mL, the neutralization IC80 [2] was 0.06 µg/mL and the neutralization MPI [2] was 100. For the same substance, the neutralization IC50 [3] was 0.756 µg/mL, the neutralization IC80 [3] was 6.02 µg/mL and the neutralization MPI [3] was 97. It also gave a neutralization IC50 [4] of 0.132 µg/mL, a neutralization IC80 [4] of 0.466 µg/mL and a neutralization MPI [4] of 100. The neutralization IC50 [5] was 0.184 µg/mL, the neutralization IC80 [5] was 0.832 µg/mL and the neutralization MPI [5] was 100. The neutralization IC50 [6] was 2.07 µg/mL, the neutralization IC80 [6] was 21.4 µg/mL and the neutralization MPI [6] was 91. The neutralization IC50 [7] was 0.009 µg/mL, the neutralization IC80 [7] was 0.041 µg/mL and the neutralization MPI [7] was 100. The neutralization IC50 [8] was 0.014 µg/mL, the neutralization IC80 [8] was 0.061 µg/mL and the neutralization MPI [8] was 100. For the same substance, the neutralization IC50 [9] was 0.226 µg/mL, the neutralization IC80 [9] was 0.774 µg/mL and the neutralization MPI [9] was 100. The neutralization IC50 [10] was 0.164 µg/mL, the neutralization IC80 [10] was 0.403 µg/mL and the neutralization MPI [10] was 100. The neutralization IC50 [11] was 22.3 µg/mL, the neutralization IC80 [11] was over 50 µg/mL and the neutralization MPI [11] was 75. For the same substance, the neutralization IC50 [12] was 0.178 µg/mL, the neutralization IC80 [12] was 0.62 µg/mL and the neutralization MPI [12] was 100. For the same substance, the neutralization IC50 [13] was 0.081 µg/mL, the neutralization IC80 [13] was 0.377 µg/mL and the neutralization MPI [13] was 100. For the same substance, the neutralization IC50 [14] was 0.089 µg/mL, the neutralization IC80 [14] was 0.568 µg/mL and the neutralization MPI [14] was 100. For the same substance, the neutralization IC50 [15] was 2.97 µg/mL, the neutralization IC80 [15] was 13.6 µg/mL and the neutralization MPI [15] was 100. For the same substance, the neutralization IC50 [16] was 0.02 µg/mL, the neutralization IC80 [16] was 0.123 µg/mL and the neutralization MPI [16] was 100. The neutralization IC50 [17] was 0.2 µg/mL, the neutralization IC80 [17] was 0.96 µg/mL and the neutralization MPI [17] was 100. It also gave a neutralization IC50 [18] of 0.046 µg/mL, a neutralization IC80 [18] of 0.125 µg/mL and a neutralization MPI [18] of 100. The neutralization IC50 [19] was 0.044 µg/mL, the neutralization IC80 [19] was 0.158 µg/mL and the neutralization MPI [19] was 100. For the same substance, the neutralization IC50 [20] was 0.104 µg/mL, the neutralization IC80 [20] was 0.351 µg/mL and the neutralization MPI [20] was 100. It also gave a neutralization IC50 [21] of 0.141 µg/mL, a neutralization IC80 [21] of 0.468 µg/mL and a neutralization MPI [21] of 100. The neutralization IC50 [22] was 0.102 µg/mL, the neutralization IC80 [22] was 0.668 µg/mL and the neutralization MPI [22] was 100. For the same substance, the neutralization IC50 [23] was 0.494 µg/mL, the neutralization IC80 [23] was 2.31 µg/mL and the neutralization MPI [23] was 100. For the same substance, the neutralization IC50 [24] was 0.251 µg/mL, the neutralization IC80 [24] was 0.8 µg/mL and the neutralization MPI [24] was 100. It also gave a neutralization IC50 [25] of 5.03 µg/mL, a neutralization IC80 [25] of 36.7 µg/mL and a neutralization MPI [25] of 89. For the same substance, the neutralization IC50 [26] was 0.008 µg/mL, the neutralization IC80 [26] was 0.023 µg/mL and the neutralization MPI [26] was 100. It also gave a neutralization IC50 [27] of 0.028 µg/mL, a neutralization IC80 [27] of 0.1 µg/mL and a neutralization MPI [27] of 100. For the same substance, the neutralization IC50 [28] was 0.141 µg/mL, the neutralization IC80 [28] was 0.932 µg/mL and the neutralization MPI [28] was 100. It also gave a neutralization IC50 [29] of 0.011 µg/mL, a neutralization IC80 [29] of 0.031 µg/mL and a neutralization MPI [29] of 100. The neutralization IC50 [30] was 0.126 µg/mL, the neutralization IC80 [30] was 0.46 µg/mL and the neutralization MPI [30] was 100.

N49P7.1 (antibody) was tested, and the neutralization IC50 [1] was 0.279 µg/mL, the neutralization IC80 [1] was 1.01 µg/mL and the neutralization MPI [1] was 100. It also gave a neutralization IC50 [2] of 0.028 µg/mL, a neutralization IC80 [2] of 0.08 µg/mL and a neutralization MPI [2] of 100. It also gave a neutralization IC50 [3] of 1.58 µg/mL, a neutralization IC80 [3] of 12.2 µg/mL and a neutralization MPI [3] of 96. The neutralization IC50 [4] was 0.085 µg/mL, the neutralization IC80 [4] was 0.364 µg/mL and the neutralization MPI [4] was 100. It also gave a neutralization IC50 [5] of 0.11 µg/mL, a neutralization IC80 [5] of 0.498 µg/mL and a neutralization MPI [5] of 100. It also gave a neutralization IC50 [6] of 2.27 µg/mL, a neutralization IC80 [6] of 24.7 µg/mL and a neutralization MPI [6] of 89. The neutralization IC50 [7] was 0.027 µg/mL, the neutralization IC80 [7] was 0.128 µg/mL and the neutralization MPI [7] was 100. The neutralization IC50 [8] was 0.029 µg/mL, the neutralization IC80 [8] was 0.115 µg/mL and the neutralization MPI [8] was 100. For the same substance, the neutralization IC50 [9] was 0.355 µg/mL, the neutralization IC80 [9] was 1.25 µg/mL and the neutralization MPI [9] was 100. It also gave a neutralization IC50 [10] of 0.189 µg/mL, a neutralization IC80 [10] of 0.688 µg/mL and a neutralization MPI [10] of 100. It also gave a neutralization IC50 [11] of 42.4 µg/mL, a neutralization IC80 [11] of over 50 µg/mL and a neutralization MPI [11] of 56. The neutralization IC50 [12] was 0.229 µg/mL, the neutralization IC80 [12] was 0.794 µg/mL and the neutralization MPI [12] was 100. It also gave a neutralization IC50 [13] of 0.053 µg/mL, a neutralization IC80 [13] of 0.225 µg/mL and a neutralization MPI [13] of 100. For the same substance, the neutralization IC50 [14] was 0.121 µg/mL, the neutralization IC80 [14] was 0.742 µg/mL and the neutralization MPI [14] was 99. The neutralization IC50 [15] was 3.96 µg/mL, the neutralization IC80 [15] was 18.2 µg/mL and the neutralization MPI [15] was 96. For the same substance, the neutralization IC50 [16] was 0.031 µg/mL, the neutralization IC80 [16] was 0.29 µg/mL and the neutralization MPI [16] was 100. For the same substance, the neutralization IC50 [17] was 0.314 µg/mL, the neutralization IC80 [17] was 1.11 µg/mL and the neutralization MPI [17] was 99. For the same substance, the neutralization IC50 [18] was 0.063 µg/mL, the neutralization IC80 [18] was 0.176 µg/mL and the neutralization MPI [18] was 100. For the same substance, the neutralization IC50 [19] was 0.061 µg/mL, the neutralization IC80 [19] was 0.193 µg/mL and the neutralization MPI [19] was 100. It also gave a neutralization IC50 [20] of 0.156 µg/mL, a neutralization IC80 [20] of 0.529 µg/mL and a neutralization MPI [20] of 100. It also gave a neutralization IC50 [21] of 0.171 µg/mL, a neutralization IC80 [21] of 0.603 µg/mL and a neutralization MPI [21] of 100. It also gave a neutralization IC50 [22] of 0.185 µg/mL, a neutralization IC80 [22] of 0.748 µg/mL and a neutralization MPI [22] of 100. It also gave a neutralization IC50 [23] of 0.627 µg/mL, a neutralization IC80 [23] of 2.98 µg/mL and a neutralization MPI [23] of 100. For the same substance, the neutralization IC50 [24] was 0.287 µg/mL, the neutralization IC80 [24] was 1 µg/mL and the neutralization MPI [24] was 100. It also gave a neutralization IC50 [25] of 5.31 µg/mL, a neutralization IC80 [25] of 46.8 µg/mL and a neutralization MPI [25] of 85. It also gave a neutralization IC50 [26] of 0.021 µg/mL, a neutralization IC80 [26] of 0.058 µg/mL and a neutralization MPI [26] of 100. For the same substance, the neutralization IC50 [27] was 0.079 µg/mL, the neutralization IC80 [27] was 0.224 µg/mL and the neutralization MPI [27] was 100. The neutralization IC50 [28] was 0.211 µg/mL, the neutralization IC80 [28] was 1.35 µg/mL and the neutralization MPI [28] was 100. The neutralization IC50 [29] was 0.018 µg/mL, the neutralization IC80 [29] was 0.04 µg/mL and the neutralization MPI [29] was 100. It also gave a neutralization IC50 [30] of 0.254 µg/mL, a neutralization IC80 [30] of 0.86 µg/mL and a neutralization MPI [30] of 100.
